# Measurements as given in the supplement of paper PMC7877785.
# ± gives the uncertainty stated by the source.
# Test: self-splicing fitness, log relative to wild type (ln ratio); higher = more splicing; Tetrahymena group I intron in knt gene, E. coli kanamycin selection, DiMSum; sequences stand for … in CUCUCU…GGAGGGAAAAGUUAUCAGGCAUGCACCUGGUAGCUAGUCUUUAAACCAAUAGAUUGCAUCGGUUUAAAAGGCAAGACCGUCAAAUUGCGGGAAAGGGGUCAACAGCCGUUCAGUACCAAGUCUCAGGGGAAACUUUGAGAUGGCCUUGCAAAGGGUAUGGUAAUAAGCUGACGGACAUGGUCCUAACCACGCAGCCAAGUCCUAAGUCAACAGAUCUUCUGUUGAUAUGGAUGCAGUUCACAGACUAAAUGUCGGUCGGGGAAGAUGUAUUCUUCUCAUAAGAUAUAGUCGGACCUCUCCUUAAUGGGAGCUAGCGGAUGAAGUGAUGCAACACUGGAGCCGCUGGGAACUAAUUUGUAUGCGAAAGUAUAUUGAUUAGUUUUGGAGUACUCGUGGUCG
# Outline: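 Library with all eight P1ex-region intron nucleotides randomised, intron inside the knt kanamycin-resistance gene on pET-22b(+), in E. coli BL21(DE3). Cells grew overnight at 37°C or 30°C on LB agar with or without 25 μg/mL kanamycin (plus 100 μg/mL carbenicillin, 50 μM IPTG, 0.2% rhamnose), in six replicate transformations. Pooled colonies were amplicon-sequenced on Illumina HiSeq 2500. DiMSum fitness is the error-weighted combination of wild-type-normalised replicate fold changes, kanamycin versus none.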
Sequence,self-splicing fitness (ln) (30 °C),self-splicing fitness (ln) (37 °C)
ACUUAGCAAUAUUACGGACC,-0.607 ± 0.15,-0.756 ± 0.25
ACUUAGCAAUAUUACGGCCA,-0.83 ± 0.13,-0.409 ± 0.19
ACUUAGCAAUAUUACGGUUA,-1.27 ± 0.17,-0.752 ± 0.15
ACUUAGCAAUAUUACGUAAA,-2.37 ± 0.2,-0.419 ± 0.2
ACUUAGCAAUAUUACGUACG,-1.45 ± 0.099,-1.04 ± 0.13
ACUUAGCAAUAUUACGUAGA,-3.26 ± 0.13,-1.59 ± 0.11
ACUUAGCAAUAUUACGUCGG,-2.34 ± 0.14,-1.59 ± 0.17
ACUUAGCAAUAUUACGUGAU,-2.53 ± 0.1,-1.37 ± 0.1
ACUUAGCAAUAUUACGUGGC,-2.83 ± 0.16,-2.85 ± 0.29
AGAAAGCAAUAUUACGAACC,-1.29 ± 0.17,-0.276 ± 0.13
AGAAAGCAAUAUUACGAGGG,-2.8 ± 0.21,-2.61 ± 0.36
AGAAAGCAAUAUUACGAUGC,-2.16 ± 0.14,-1.38 ± 0.13
AGAAAGCAAUAUUACGCACA,-0.139 ± 0.1,-0.236 ± 0.12
AGAAAGCAAUAUUACGCACU,-0.82 ± 0.15,-1.17 ± 0.18
AGAAAGCAAUAUUACGCCUC,-1.37 ± 0.17,-0.948 ± 0.23
AGAAAGCAAUAUUACGCGAA,-1.95 ± 0.13,-1.08 ± 0.16
AGAAAGCAAUAUUACGCGCA,-0.218 ± 0.094,0.174 ± 0.11
AGAAAGCAAUAUUACGCGUU,-2.71 ± 0.16,-2.34 ± 0.17
AGAAAGCAAUAUUACGCUAG,-3.32 ± 0.22,-2.65 ± 0.21
AGAAAGCAAUAUUACGCUCU,-3.2 ± 0.37,-2.58 ± 0.49
AGAAAGCAAUAUUACGCUUC,-1.58 ± 0.27,-2.22 ± 0.39
AGAAAGCAAUAUUACGGAAA,-1.63 ± 0.14,-1.33 ± 0.15
AGAAAGCAAUAUUACGGAUU,-2.21 ± 0.14,-0.867 ± 0.16
AGAAAGCAAUAUUACGGGGU,-3.8 ± 0.22,-2.34 ± 0.23
AGAAAGCAAUAUUACGGUAC,-3.29 ± 0.32,-1.67 ± 0.23

Sequence,self-splicing fitness (ln) (30 °C),self-splicing fitness (ln) (37 °C)
AGAAAGCAAUAUUACGUAAA,-2.15 ± 0.12,-1.88 ± 0.14
AGAAAGCAAUAUUACGUAAG,-1.61 ± 0.084,-0.0907 ± 0.095
AGAAAGCAAUAUUACGUGGU,-4.26 ± 0.29,-2.41 ± 0.16
AGACAGCAAUAUUACGACUC,-2.28 ± 0.18,-0.623 ± 0.2
AGACAGCAAUAUUACGAGGU,-3.46 ± 0.16,-1.87 ± 0.13
AGACAGCAAUAUUACGAUCU,-2.62 ± 0.12,-0.863 ± 0.1
AGACAGCAAUAUUACGCGGC,-3.51 ± 0.24,-2.15 ± 0.21
AGACAGCAAUAUUACGCGUA,-1.43 ± 0.084,-0.867 ± 0.074
AGACAGCAAUAUUACGGAAA,-3.32 ± 0.26,-1.48 ± 0.13
AGACAGCAAUAUUACGGAUU,-2.55 ± 0.088,-1.45 ± 0.089
AGACAGCAAUAUUACGGCCG,-1.26 ± 0.078,-0.403 ± 0.12
AGACAGCAAUAUUACGGCGA,-0.438 ± 0.069,-0.143 ± 0.083
AGACAGCAAUAUUACGGGAG,-3.93 ± 0.16,-2.89 ± 0.17
AGACAGCAAUAUUACGGGCU,-1.78 ± 0.11,-0.732 ± 0.13
AGACAGCAAUAUUACGGGUU,-1.96 ± 0.1,-1.12 ± 0.12
AGACAGCAAUAUUACGGUAU,-2.55 ± 0.1,-0.734 ± 0.091
AGACAGCAAUAUUACGGUCU,-3.78 ± 0.23,-2.48 ± 0.25
AGACAGCAAUAUUACGGUGA,-1.49 ± 0.074,-0.921 ± 0.095
AGACAGCAAUAUUACGUAGA,-2.6 ± 0.081,-2.5 ± 0.11
AGACAGCAAUAUUACGUAGG,-2.6 ± 0.11,-1.28 ± 0.11
AGACAGCAAUAUUACGUUCU,-3.7 ± 0.18,-3.16 ± 0.21
AGAGAGCAAUAUUACGAACC,-2.98 ± 0.39,-1.57 ± 0.38
AGAGAGCAAUAUUACGAAGG,-3.13 ± 0.39,-1.42 ± 0.37
AGAGAGCAAUAUUACGAGUA,–,-2.01 ± 0.45
AGAGAGCAAUAUUACGAUUG,-3.12 ± 0.25,-2.88 ± 0.35

Sequence,self-splicing fitness (ln) (30 °C),self-splicing fitness (ln) (37 °C)
AGAGAGCAAUAUUACGCAAG,-3.46 ± 0.3,-2.29 ± 0.3
AGAGAGCAAUAUUACGCGAG,-2.97 ± 0.34,–
AGAGAGCAAUAUUACGCGUA,-2.46 ± 0.27,-2.08 ± 0.48
AGAGAGCAAUAUUACGCGUC,-2.64 ± 0.36,-0.28 ± 0.28
AGAGAGCAAUAUUACGCGUU,-2.09 ± 0.4,–
AGAGAGCAAUAUUACGCUAG,-2.84 ± 0.28,-2.91 ± 0.38
AGAGAGCAAUAUUACGCUCU,-2.47 ± 0.47,–
AGAGAGCAAUAUUACGGAAC,-2.74 ± 0.38,-1.83 ± 0.4
AGAGAGCAAUAUUACGGCUG,-0.227 ± 0.24,-2.26 ± 0.49
AGAGAGCAAUAUUACGGGAG,-2.6 ± 0.4,–
AGAGAGCAAUAUUACGGGUG,-3.31 ± 0.32,–
AGAGAGCAAUAUUACGUACC,-1.69 ± 0.28,-0.0438 ± 0.38
AGAGAGCAAUAUUACGUAUU,-4.03 ± 0.35,-3.1 ± 0.3
AGAGAGCAAUAUUACGUGCG,-1.98 ± 0.16,-1.79 ± 0.26
AGAGAGCAAUAUUACGUGGA,-3.15 ± 0.4,-2.3 ± 0.5
AGAGAGCAAUAUUACGUUAC,-2.67 ± 0.22,-2.19 ± 0.42
AGAGAGCAAUAUUACGUUGU,-3.79 ± 0.21,-3.07 ± 0.2
AGAUAGCAAUAUUACGAACA,-1.15 ± 0.11,-0.00294 ± 0.12
AGAUAGCAAUAUUACGACGA,-0.422 ± 0.095,-0.749 ± 0.085
AGAUAGCAAUAUUACGACUU,-0.125 ± 0.065,-0.304 ± 0.086
AGAUAGCAAUAUUACGAUCU,-1.53 ± 0.14,-0.462 ± 0.17
AGAUAGCAAUAUUACGCGAU,-2.53 ± 0.25,-2.15 ± 0.27
AGAUAGCAAUAUUACGCGUA,-1.2 ± 0.12,-1.41 ± 0.13
AGAUAGCAAUAUUACGCUCG,-0.0589 ± 0.11,-0.37 ± 0.12
AGAUAGCAAUAUUACGCUCU,-3.31 ± 0.23,-1.46 ± 0.21

Sequence,self-splicing fitness (ln) (30 °C),self-splicing fitness (ln) (37 °C)
AGAUAGCAAUAUUACGGAUG,-2.96 ± 0.19,-2.3 ± 0.28
AGAUAGCAAUAUUACGGCGA,-0.537 ± 0.14,-0.0635 ± 0.14
AGAUAGCAAUAUUACGGCGG,-0.92 ± 0.12,-1.04 ± 0.15
AGAUAGCAAUAUUACGGCUC,-1.14 ± 0.32,-0.656 ± 0.37
AGAUAGCAAUAUUACGGGGU,-3.5 ± 0.16,-2.26 ± 0.13
AGAUAGCAAUAUUACGGUAG,-3.93 ± 0.37,-1.69 ± 0.21
AGAUAGCAAUAUUACGUACA,-1.26 ± 0.055,-0.0902 ± 0.08
AGAUAGCAAUAUUACGUCAC,-1.17 ± 0.27,-2.78 ± 0.48
AGAUAGCAAUAUUACGUCCA,0.498 ± 0.11,0.122 ± 0.18
AGAUAGCAAUAUUACGUGCU,-1.39 ± 0.1,-0.664 ± 0.12
AGAUAGCAAUAUUACGUGGG,-2.85 ± 0.15,-2.49 ± 0.19
AGAUAGCAAUAUUACGUGUA,-2.9 ± 0.14,-1.82 ± 0.12
AGAUAGCAAUAUUACGUUGU,-2.26 ± 0.08,-2.39 ± 0.11
AGCAAGCAAUAUUACGCCAA,-2.89 ± 0.2,-1.97 ± 0.14
AGCAAGCAAUAUUACGCCCA,-0.157 ± 0.17,-0.704 ± 0.22
AGCAAGCAAUAUUACGCGUG,-3.87 ± 0.19,-3.49 ± 0.27
AGCAAGCAAUAUUACGCUCA,-2.66 ± 0.18,-1.69 ± 0.15
AGCAAGCAAUAUUACGCUUC,–,-3.29 ± 0.42
AGCAAGCAAUAUUACGGCCG,-0.219 ± 0.071,-0.111 ± 0.094
AGCAAGCAAUAUUACGGCUU,-3.17 ± 0.18,-0.891 ± 0.12
AGCAAGCAAUAUUACGGGCC,-3.26 ± 0.23,-2.32 ± 0.22
AGCAAGCAAUAUUACGGGCG,-0.538 ± 0.061,-0.377 ± 0.074
